According to patent publication US20100240774A1, “USE OF HYDROPHOBIN POLYPEPTIDES AS PENETRATION ENHANCERS” (BASF SE, priority 2007, published 2010):

Legend:
[1] = tested on: NHDF (normal human dermal fibroblast) cultures; test: antioxidative capacity (DCFH fluorescence after H2O2 stress) in NHDF cultures; type: cell-based; settings: 24 h treatment, H2O2-induced radicals, protein concentration 0.001%, three independent runs, effect seen in two of three runs
Excerpt: The reference substances used were vitamin E (alpha-tocopheryl acetate), vitamin C (Mg ascorbyl phosphate) and quercetin. The test cells used were normal dermal connective tissue cells (fibroblasts) since these produced good signal strengths in the evaluation method. To ascertain the antioxidative properties of the solutions, the NHDF (normal human dermal fibroblast) cultures were sown out on 48-well culture vessels and cultivated until the culture surface was completely covered. The investigations were then carried out with these random cultures. Firstly, the cultures were treated for 24 h with the test solutions. […] The plates containing the cells were inserted into a fluorescence reader and the measurement was started with an introductory phase without stress. […] Low fluorescence thus indicates high antioxidative capacity. […] The y axis here represents the oxidative stress in the cells as the fluorescence which is emitted when free radicals react with the intracellular dye DCFH. […] All fluorescence values were corrected with the protein contents of the cultures following conclusion of the measurements (ascertained with Coomassie stain). This compensates for fluctuations in the cell number, which would also cause fluctuations in the fluorescence (on account of the varying amount of dye). […]

[2] = skin penetration of lactic acid: pH of pigskin after tape stripping; type: in vitro ADME, pig; settings: for pH of the skin in the lower skin layers (after stripping) versus control without hydrophobin: hydrophobin coating and subsequent lactic acid treatment; for pH 1x stripping / pH 2x stripping / pH 3x stripping / pH without stripping: pigskin pretreated with 100 μl 0.1% hydrophobin 1.5 hours, then 15% strength lactic acid 10 minutes; for pH 1x stripping: after 1 Corneofix strip; for pH 2x stripping: after 2 Corneofix strips; for pH 3x stripping: after 3 Corneofix strips; for pH without stripping: mean of triple measurements
Experimental: • 1. Preparation of a 1% strength solution of hydrophobin A and B in Millipore water Dissolution of the hydrophobin by vigorous stirring on a magnetic stirrer at 900 rpm for 45 minutes. • 2. Preparation of 1 ml of a ready-to-use hydrophobin solution: • 800 μl Millipore water +100 μl 10-fold buffer (500 mM Tris, 10 mM CaCl2, pH 8) +100 μl hydrophobin solution
This corresponds to a 0.1% strength hydrophobin solution in 50 mM Tris 1 mM CaCl2 and pH 8
• 1. Frozen and dehaired pigskin (not blanched) was defrosted at room temperature. Marking of the application fields measuring ca. 2 cm×2 cm Application of the following solutions (stripping): • control (without solution)
• 2. Incubation of the solutions for 1.5 hours at RT
In order to remove any buffer salts present, all of the application fields were rinsed with 2×500 μl of Millipore water and dabbed with a paper towel. • 3. Application of in each case 100 μl of 15% strength lactic acid to all application fields
Incubation of the solutions for 10 minutes at room temperature
Removal of the excess lactic acid using a paper towel
Measurement of the pH of the pigskin on the respective application fields. Triple measurements were carried out and the mean was used. The water present after a pH measurement was dabbed off using a paper towel. A skin pH meter PH 905 from Courage & Khazaka was used.
Removal of the uppermost loose cell layer using a Corneofix adhesive strip from Courage & Khazaka
Renewed measurement of the pH
Overall, a Corneofix adhesive strip was used 3 times and the pH measured thereafter.

In the case of CC(=O)Oc1c(C)c(C)c2c(c1C)CCC(C)(CCC[C@H](C)CCC[C@H](C)CCCC(C)C)O2 (stereo partly drawn) [Tocopheryl acetate, alpha-tocopheryl acetate], the “oxidative stress / antioxidative potential (DCFH fluorescence)” value [1] is reported as “no antioxidative potential”.

B1: hydrophobin B: fusion hydrophobin, SEQ ID NO: 26 from WO2007/14897; SEQ ID NO: 36 herein (yaad40-Xa-dewA-his) (protein)
chain: MAQTGTERVKRGMAEMQKGGVIMDVINAEQAKIAEEAGAVIEGRMRFIVSLLAFTAAATATALPASAAKNAKLATSAAFAKQAEGTTCNVGSIACCNSPAETNNDSLLSGLLGAGLLNGLSGNTGSACAKASLIDQLGLLALVDHTEEGPVCKNIVACCPEGTTNCVAVDNAGAGTKAEGSHHHHHH
modifications: fusion protein yaad40-Xa-dewA-his
With B1 the “pH of the skin in the lower skin layers (after stripping) versus control without hydrophobin” value [2] was “lower pH”, the “pH 1x stripping” value [2] was 2.89 and the “pH 2x stripping” value [2] was 3.08. The “pH 3x stripping” value [2] was 3.26 and the pH without stripping [2] was 2.64.

B2: hydrophobin A: fusion hydrophobin, SEQ ID NO: 20 from WO2007/14897 and herein (yaad-Xa-dewA-his) (protein)
chain: MAQTGTERVKRGMAEMQKGGVIMDVINAEQAKIAEEAGAVAVMALERVPADIRAAGGVARMADPTIVEEVMNAVSIPVMAKARIGHIVEARVLEAMGVDYIDESEVLTPADEEFHLNKNEYTVPFVCGCRDLGEATRRIAEGASMLRTKGEPGTGNIVEAVRHMRKVNAQVRKVVAMSEDELMTEAKNLGAPYELLLQIKKDGKLPVVNFAAGGVATPADAALMMQLGADGVFVGSGIFKSDNPAKFAKAIVEATTHFTDYKLIAELSKELGTAMKGIEISNLLPEQRMQERGWRSIEGRMRFIVSLLAFTAAATATALPASAAKNAKLATSAAFAKQAEGTTCNVGSIACCNSPAETNNDSLLSGLLGAGLLNGLSGNTGSACAKASLIDQLGLLALVDHTEEGPVCKNIVACCPEGTTNCVAVDNAGAGTKAEGSHHHHHH
modifications: basf-yaad-Xa-dewA-his fusion of Bacillus subtilis yaaD and N-terminal factor Xa proteinase cleavage site and Aspergillus nidulans hydrophobin dewA and his6
With B2 the “pH of the skin in the lower skin layers (after stripping) versus control without hydrophobin” value [2] was “lower pH”, the “pH 1x stripping” value [2] was 3.08 and the “pH 2x stripping” value [2] was 3.39. The “pH 3x stripping” value [2] was 3.63 and the pH without stripping [2] was 2.62.
